{
  "source": "patent US20240270859A1",
  "about": "(HK INNO N, published 2024)",
  "key": {"[1]": {"target": "T1, human OX40L protein (OX40L-his), Acro Biosystems Cat #OXL-H52Q8 (human, UniProt P23510 51-183)", "T1 construct": "This molecule is used there as well; also called hOX40L; OX40L antigen protein (OX40L-his)", "T1 sequence": "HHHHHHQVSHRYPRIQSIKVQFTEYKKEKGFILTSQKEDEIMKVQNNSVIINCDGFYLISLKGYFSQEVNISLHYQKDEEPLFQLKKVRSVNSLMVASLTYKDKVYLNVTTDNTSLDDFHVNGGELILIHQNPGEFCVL", "assay": "SPR (Biacore T200), antibody captured by anti-hFc on CM5 chip, antigen as analyte", "protocol": "A surface plasmon resonance (SPR) analysis was performed by using Bicore T200, and a running buffer used was HBS-EP (10 mM HEPES, pH7.4, 150 mM NaCl, 3 mM EDTA, […] surfactant P20). A human antibody capture kit (anti-hFc antibody) was fixed onto a surface of CM5 chip through an amine coupling method. […] An analytical sample was prepared with high purity/high concentration so that the minimum dilution factor could be 100 or more, thereby minimizing a buffer effect."}, "[2]": {"target": "T1, human OX40L protein (OX40L-his), Acro …", "assay": "cell-based or functional assay"}, "[3]": {"target": "human TNFα (TNF-H5228 of Acro Biosystems) (human, UniProt P01375 77-233)", "sequence (P01375 77-233 limits assumed)": "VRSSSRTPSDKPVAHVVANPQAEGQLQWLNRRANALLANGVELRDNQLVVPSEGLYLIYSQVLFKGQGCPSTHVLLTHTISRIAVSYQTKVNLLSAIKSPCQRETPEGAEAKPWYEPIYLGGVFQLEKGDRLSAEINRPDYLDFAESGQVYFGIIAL", "assay": "cell-based or functional assay"}, "[4]": {"target": "T1, human OX40L protein (OX40L-his), Acro …", "assay": "cell-based or functional assay", "remark": "listed apart in the source"}},
  "note": "Where two headings read alike, the source gives them in different places.",
  "data": [
    {"binder": "anti-OX40L antibody Hu3F07 (antibody, human IgG4 S228P, kappa, V domains shown, Humanized; IgG4 S228P / kappa) VH: QVQLVQSGAEVKKPGASVKVSCKASGFTFPDYWMHWVRQAPGQGLEWMGEIDPPNGRTNYNEKFKSRVTMTRDTSISTAYMELSRLRSDDTAVYYCARGIYYVDYWGQGTTVTVSS VL: DIVMTQSPLSLPVTLGEPASISCRSSQSLVHSNGNTYLHWYLQKPGQSPQLLIYKVSNRFSGVPDRFSGSGSGTDFTLKISRVEAEDVGVYYCSQSTHVPPTFGGGTKLEIKR", "values": [
      {"measurement": "Kd", "setting": "[1]", "value": 0.282, "unit": "nM"},
      {"measurement": "koff", "setting": "[1]", "value": 0.000357, "unit": "s⁻¹"},
      {"measurement": "kon", "setting": "[1]", "value": "1.27e+06", "unit": "M⁻¹ s⁻¹"},
      {"measurement": "IC50 (nM), OX40L blockade assay (luminescence of NFκB-luc2/OX40 Jurkat cells)", "setting": "[2]", "value": 0.2, "unit": "nM"},
      {"measurement": "IC50(µg/mL), OX40L blockade assay (luminescence of NFκB-luc2/OX40 Jurkat cells)", "setting": "[2]", "value": 0.03, "unit": "µg/mL"}
    ]},
    {"binder": "bispecific antibody Hu3F07-TNFαi HC (bispecific antibody) heavy: not shown light: DIVMTQSPLSLPVTLGEPASISCRSSQSLVHSNGNTYLHWYLQKPGQSPQLLIYKVSNRFSGVPDRFSGSGSGTDFTLKISRVEAEDVGVYYCSQSTHVPPTFGGGTKLEIKRTVAAPSVFIFPPSDEQLKSGTASVVCLLNNFYPREAKVQWKVDNALQSGNSQESVTEQDSKDSTYSLSSTLTLSKADYEKHKVYACEVTHQGLSSPVTKSFNRGEC", "values": [
      {"measurement": "Kd", "setting": "[1]", "value": 0.45, "unit": "nM"},
      {"measurement": "IC50 (nM), OX40L blockade assay (luminescence of NFκB-luc2/OX40 Jurkat cells)", "setting": "[2]", "value": 0.21, "unit": "nM"},
      {"measurement": "IC50(µg/mL), OX40L blockade assay (luminescence of NFκB-luc2/OX40 Jurkat cells)", "setting": "[2]", "value": 0.041, "unit": "µg/mL"}
    ]},
    {"binder": "bispecific antibody 02C09-TNFαi HC (bispecific antibody) heavy: not shown light: DIQMTQSPSSLSASLGDRVTITCRASQSIGRWLAWYQQKPGNAPKLLIYKATILESGVPSRFSGSGSGTEFALTISSLQPDDFSAYYCQQYNSYPYTFGQGTKLEIKRTVAAPSVFIFPPSDEQLKSGTASVVCLLNNFYPREAKVQWKVDNALQSGNSQESVTEQDSKDSTYSLSSTLTLSKADYEKHKVYACEVTHQGLSSPVTKSFNRGEC", "values": [
      {"measurement": "Kd", "setting": "[1]", "value": 0.472, "unit": "nM"},
      {"measurement": "IC50 (nM), OX40L blockade assay (luminescence of NFκB-luc2/OX40 Jurkat cells)", "setting": "[2]", "value": 0.59, "unit": "nM"},
      {"measurement": "IC50(µg/mL), OX40L blockade assay (luminescence of NFκB-luc2/OX40 Jurkat cells)", "setting": "[2]", "value": 0.117, "unit": "µg/mL"}
    ]},
    {"binder": "reference anti-OX40L antibody O4L (VH and VL of oxelumab) (antibody, human IgG4 S228P, kappa, V domains shown) VH: EVQLLESGGGLVQPGGSLRLSCAASGFTFNSYAMSWVRQAPGKGLEWVSIISGSGGFTYYADSVKGRFTISRDNSRTTLYLQMNSLRAEDTAVYYCAKDRLVAPGTFDYWGQGALVTVSS VL: DIQMTQSPSSLSASVGDRVTITCRASQGISSWLAWYQQKPEKAPKSLIYAASSLQSGVPSRFSGSGSGTDFTLTISSLQPEDFATYYCQQYNSYPYTFGQGTKLEIKR", "values": [
      {"measurement": "IC50 (nM), OX40L blockade assay (luminescence of NFκB-luc2/OX40 Jurkat cells)", "setting": "[2]", "value": 1.95, "unit": "nM"},
      {"measurement": "IC50(µg/mL), OX40L blockade assay (luminescence of NFκB-luc2/OX40 Jurkat cells)", "setting": "[2]", "value": 0.293, "unit": "µg/mL"}
    ]},
    {"binder": "bispecific antibody I3F07-TNFαi HC (bispecific antibody) heavy: not shown light: DIVLTQSPLSLPVSLGDQASISCRSSQSLVHSNGNTYLHWYLQKPGQSPKLLIYKVSNRFSGVPDRFSGSGSGTDFTLKISRVEAEDLGVYFCSQSTHVPPTFGGGSKLEIKRTVAAPSVFIFPPSDEQLKSGTASVVCLLNNFYPREAKVQWKVDNALQSGNSQESVTEQDSKDSTYSLSSTLTLSKADYEKHKVYACEVTHQGLSSPVTKSFNRGEC", "values": [
      {"measurement": "IC50 (nM), TNFα blockade assay (luminescence of NFκB-RE HEK293 cells)", "setting": "[3]", "value": 0.055, "unit": "nM"},
      {"measurement": "IC50 (nM), OX40L blockade assay (luminescence of NFκB-luc2/OX40 Jurkat cells)", "setting": "[4]", "value": 0.91, "unit": "nM"}
    ]},
    {"binder": "anti-OX40L antibody 21G07 (antibody, human IgG4 S228P, kappa, V domains shown, Chimeric; IgG4 S228P / kappa) VH: QVQLQQSGAELVKPGASVKLSCKASGYTFTNYWMQWVKQRPGQGLEWIGEIDPSDGRTNYNEKFKNKATLTVDRSSSTAYIKLSSLTSEDSAVYYCAREVSLRSMDYWGQGTSVTVSS VL: DIVLTQSPLSLPVSLGDQASISCRSSQSLVHSNGNTYLHWYLQKPGQSPKLLIYKVSNRFSGVPDRFSGSGSGTDFTLKISRVEAEDLGVYFCSQSTHVPFTFGSGTKLEIKR", "values": [
      {"measurement": "Kd", "setting": "[1]", "value": 0.603, "unit": "nM"},
      {"measurement": "koff", "setting": "[1]", "value": 0.00065, "unit": "s⁻¹"},
      {"measurement": "kon", "setting": "[1]", "value": "1.08e+06", "unit": "M⁻¹ s⁻¹"},
      {"measurement": "IC50 (nM), OX40L blockade assay (luminescence of NFκB-luc2/OX40 Jurkat cells)", "setting": "[2]", "value": 0.85, "unit": "nM"},
      {"measurement": "IC50(µg/mL), OX40L blockade assay (luminescence of NFκB-luc2/OX40 Jurkat cells)", "setting": "[2]", "value": 0.128, "unit": "µg/mL"}
    ]},
    {"binder": "anti-OX40L antibody 10H07 (antibody, human IgG4 S228P, kappa, V domains shown, Chimeric; IgG4 S228P / kappa) VH: QVYLQQSGAELVKPGASVKLSCKASGYTFTDYWMHWVKQRPGQGLEWIGEIDPGNGRTNYNEKFKNKATLSVDKSSNTAYMQFSSLTSEDSAVFYCASEGAGRGFPYWGQGTLVTVSA VL: DVVLTQTPLSLPVSLGDQASISCRSSQSLVHSNGNTYLHWYLQKPGQSPKLLIYKVSNRFSGVPDRFSGSGSGTDFTLKISRVEAEDLGVYFCSQSTHVPWTFGGGTKLEIKR", "values": [
      {"measurement": "Kd", "setting": "[1]", "value": 0.295, "unit": "nM"},
      {"measurement": "koff", "setting": "[1]", "value": 0.000498, "unit": "s⁻¹"},
      {"measurement": "kon", "setting": "[1]", "value": "1.69e+06", "unit": "M⁻¹ s⁻¹"},
      {"measurement": "IC50 (nM), OX40L blockade assay (luminescence of NFκB-luc2/OX40 Jurkat cells)", "setting": "[2]", "value": 0.41, "unit": "nM"},
      {"measurement": "IC50(µg/mL), OX40L blockade assay (luminescence of NFκB-luc2/OX40 Jurkat cells)", "setting": "[2]", "value": 0.061, "unit": "µg/mL"}
    ]}
  ]
}
